According to the supplement of paper PMC9233669:
Variants at the floor of the assay were thinned out.

Assays:
biotinyl-Trp-oxazolone = test: self-aminoacylation, catalytic enhancement (BWO) (fold over background); higher = more active; k-Seq, kA / k0A0; sequences stand for … in GGGAAUGGAUCCACAUCUACGAAUUC…UUCACUGCAGACUUGACGAAGCUG
Method in brief: (§1)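 Mutagenized RNA pools (0.43 μM; 21-nt variable region) were treated with 2–1250 μM of each biotinyl-aminoacyl-oxazolone. Conditions were 50 μL HEPES/NaCl/KCl/MgCl2/CaCl2 buffer, 5% acetonitrile, pH 6.9–7.0, room temperature, 90 minutes. Catalytic enhancement, the median kA relative to the uncatalyzed rate, was derived from streptavidin capture, qPCR and Illumina sequencing.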

biotinyl-Ile-oxazolone = test: self-aminoacylation, catalytic enhancement (BIO) (fold over background); higher = more active; k-Seq, kA / k0A0; sequences stand for … in GGGAAUGGAUCCACAUCUACGAAUUC…UUCACUGCAGACUUGACGAAGCUG
Method in brief: as §1

biotinyl-Leu-oxazolone = test: self-aminoacylation, catalytic enhancement (BLO) (fold over background); higher = more active; k-Seq, kA / k0A0; sequences stand for … in GGGAAUGGAUCCACAUCUACGAAUUC…UUCACUGCAGACUUGACGAAGCUG
Method in brief: as §1

biotinyl-Val-oxazolone = test: self-aminoacylation, catalytic enhancement (BVO) (fold over background); higher = more active; k-Seq, kA / k0A0; sequences stand for … in GGGAAUGGAUCCACAUCUACGAAUUC…UUCACUGCAGACUUGACGAAGCUG
Method in brief: as §1

biotinyl-Met-oxazolone = test: self-aminoacylation, catalytic enhancement (BMO) (fold over background); higher = more active; k-Seq, kA / k0A0; sequences stand for … in GGGAAUGGAUCCACAUCUACGAAUUC…UUCACUGCAGACUUGACGAAGCUG
Method in brief: as §1

biotinyl-Phe-oxazolone = test: self-aminoacylation, catalytic enhancement (BFO) (fold over background); higher = more active; k-Seq, kA / k0A0; sequences stand for … in GGGAAUGGAUCCACAUCUACGAAUUC…UUCACUGCAGACUUGACGAAGCUG
Method in brief: as §1

Row | Sequence | self-aminoacylation (biotinyl-Trp-oxazolone) | self-aminoacylation (biotinyl-Ile-oxazolone) | self-aminoacylation (biotinyl-Leu-oxazolone) | self-aminoacylation (biotinyl-Val-oxazolone) | self-aminoacylation (biotinyl-Met-oxazolone) | self-aminoacylation (biotinyl-Phe-oxazolone)
1 | UCACACUUCAAGCAAUCGGUG [Fam1B.1 aminoacylation ribozyme variant] | 6.38 | 3.81 | 7.95 | 3.95 | 5.17 | 29
2 | AUUCCCCUGGUCAUCGCGUGA [Fam2.1 aminoacylation ribozyme variant] | 26.8 | 12.2 | 28.2 | 15 | 22.1 | 213
3 | AUUCAUCUAGGUCAUCGGGGG [Fam2.2 aminoacylation ribozyme variant] | 2.14 | 1.82 | 2.31 | 1.9 | 2.13 | 5.32
4 | CCCCACUUCAAGCGAUCGGUC [Fam1B.1 aminoacylation ribozyme variant] | 4.88 | 1.69 | 1.68 | 2.02 | 2.53 | 5.13
5 | CCACACUUCAACCACUCGGUC [Fam1B.1 aminoacylation ribozyme variant] | 0.978 | 1.18 | 1.1 | 1.28 | 1.24 | 0.849
6 | CUACUUCAAAGAAUCGGUCGG [Fam1A.1 aminoacylation ribozyme variant] | 1.12 | 0.763 | 1.05 | 0.795 | 0.844 | 1.37
7 | AUUCACCUAGGUCGUCGGCUG [Fam2.2 aminoacylation ribozyme variant] | 1.63 | 1.62 | 2.55 | 1.97 | 2.16 | 4.94
8 | AAAUUAGCUAAUAGUCGCAAG [Fam3.1 aminoacylation ribozyme variant] | 3.09 | 2.36 | 1.92 | 1.81 | 1.85 | 2.21
9 | CUACUUCAAACGAUCGGCCUG [Fam1A.1 aminoacylation ribozyme variant] | 2.08 | 1.55 | 1.96 | 1.66 | 1.33 | 1.59
10 | CUACUACAAACAAUAGGUCUG [Fam1A.1 aminoacylation ribozyme variant] | 0.456 | 0.826 | 0.718 | 0.94 | 0.635 | 0.827
11 | ACUCUCCUAGGUCAUCGGGUG [Fam2.2 aminoacylation ribozyme variant] | 8.31 | 5.49 | 10.2 | 5.61 | 8.52 | 49.4
12 | ACACACUUCAAGCAAUCGGUG [Fam1B.1 aminoacylation ribozyme variant] | 9.81 | 5.89 | 10.5 | 5.84 | 7.83 | 56.7
13 | AUUCAGCUAGAUCAUCGGGUG [Fam2.2 aminoacylation ribozyme variant] | 3.9 | 2.71 | 4.61 | 2.85 | 4.04 | 26.3
14 | AUCUCCCUGGUCAUCGAGUGA [Fam2.1 aminoacylation ribozyme variant] | 10.2 | 4.57 | 9.06 | 4.7 | 9.05 | 27.2
15 | CUACUACAAACAAUGGGUCUG [Fam1A.1 aminoacylation ribozyme variant] | 1.69 | 1.07 | 1.15 | 1.14 | 1.37 | 0.955
16 | CCACACUGCAAGGAAUCGGUC [Fam1B.1 aminoacylation ribozyme variant] | 1.51 | 1.39 | 1.3 | 1.32 | 1.35 | 3.84
17 | AACUUUUCUAAUAGUCGCAAG [Fam3.1 aminoacylation ribozyme variant] | 2.05 | 1.97 | 2.33 | 1.71 | 2.11 | 3.55
18 | CUAAUUCAAAGAAUCGGUCUG [Fam1A.1 aminoacylation ribozyme variant] | 0.78 | 0.805 | 0.806 | 0.842 | 0.742 | 0.767
19 | AUUACCUUGGUCAUCGGGUGA [Fam2.1 aminoacylation ribozyme variant] | 10.8 | 5.69 | 10.6 | 6.05 | 9.54 | 53.3
20 | CCUCACUUCAAGCAAUCGGUA [Fam1B.1 aminoacylation ribozyme variant] | 1.57 | 1.05 | 1.22 | 1.11 | 1.51 | 1.91
21 | AUUGACCUAGGUCAUAGGGUG [Fam2.2 aminoacylation ribozyme variant] | 1.81 | 1.58 | 1.61 | 1.46 | 1.27 | 1.72
22 | AUUAACCUAGGGCAUCGGGUG [Fam2.2 aminoacylation ribozyme variant] | 2.76 | 2.45 | 3.09 | 2.15 | 2.86 | 14.1
23 | UUUGACCUAGGUCAUCGGGUG [Fam2.2 aminoacylation ribozyme variant] | 6.51 | 4.3 | 5.93 | 4.23 | 4.5 | 26.6
